We go through 3 molecules from US20200010567A1 (NEURIMMUNE, published 2020).

In assay [1] the target is T1, monomeric C9orf72 (GA)20 DPR protein peptide preparation (C-terminal amide).
T1 construct: also called monomeric (GA)20
T1 peptide: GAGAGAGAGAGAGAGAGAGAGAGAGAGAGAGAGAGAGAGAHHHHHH
The assay is described as follows: indirect ELISA, coated preparation 5 ug/ml. How it is done:
(§1) 96-well microplates (Corning Incorporated, Corning, USA) were coated with monomeric and aggregated (GA)₂₀ DPR protein peptide preparations at a concentration of 5 μg/ml in coating buffer (15 mM Na₂CO₃, 35 mM NaHCO₃, pH 9.42). Non-specific binding sites were blocked for 1 h at room temperature with PBS/0.1% Tween®-20 containing 2% BSA (Sigma-Aldrich, Buchs, Switzerland). Primary antibodies were diluted to the indicated concentrations and incubated 1 h at room temperature, followed by incubation with a donkey anti-human IgG Fcγ-specific antibody conjugated with HRP (Jackson ImmunoResearch Laboratories, Inc., West Grove, USA). Binding was determined by measurement of HRP activity in a standard colorimetric assay. EC₅₀ values were estimated by non-linear regression using GraphPad Prism software (San Diego, USA).
(An ELISA detects its analyte on a solid surface through an enzyme-linked reagent.)

The target in assay [2] is T2, aggregated C9orf72 (GA)20 DPR protein peptide preparation (C-terminal amide).
T2 construct: also called aggregated (GA)20; amyloid-fibril like aggregated (GA)20
T2 peptide: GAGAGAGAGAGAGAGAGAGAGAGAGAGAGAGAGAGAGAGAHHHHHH
The assay is described as follows: indirect ELISA, coated preparation 5 ug/ml. How it is done: as §1

Assay [3] has as its target T1, monomeric C9orf72 (GA)20 DPR protein …. The assay is described as follows: sandwich ELISA, preparation captured by anti-His antibody. How it is done:
(§2) 96-well microplates (Corning Incorporated, Corning, USA) were coated with monoclonal mouse anti-His tag antibody (Takara Bio Europe/Clontech, Saint-Germain-en-Laye, France) at a concentration of 10 μg/ml in coating buffer (15 mM Na₂CO₃, 35 mM NaHCO₃, pH 9.42) overnight at 4° C. Non-specific binding sites were blocked for 1 h at room temperature with PBS/0.1% Tween®-20 containing 2% BSA (Sigma-Aldrich, Buchs, Switzerland). After a washing step, his-tagged (GA)₂₀ DPR protein peptide preparations at equal concentration of 5 μM in PBS (pH 7.4) were added for target-trapping by the anti-His tag antibody for 1 h at room temperature. […] Antibody binding to DPR protein peptides was detected by a donkey anti-human IgG Fcγ-specific antibody conjugated with HRP at 1:5000 dilution (Jackson ImmunoResearch Laboratories, Inc., West Grove, USA) for 1 h at RT. Binding was determined by measurement of HRP activity in a standard colorimetric assay. EC₅₀ values were estimated by non-linear regression using GraphPad Prism software (San Diego, USA).

Assay [4] deals with T2, aggregated C9orf72 (GA)20 DPR protein …. Described as above. The procedure: as §2
Assay [5] addresses T3, (PA)15: H-C(PA)15-OH.
T3 construct: synthetic, not coupled to BSA; also called poly-PA DPR protein peptide
T3 peptide: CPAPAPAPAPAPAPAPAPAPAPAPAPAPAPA
The assay is described as follows: indirect ELISA, uncoupled peptide coated, antibody titrated [also D00015 FIG. 3K]. The procedure: In brief, dipeptide repeat proteins were synthesized and purified by Schafer-N(Copenhagen, Denmark): (GA)₁₅: H-CHHHHHH(GA)₁₅-OH; (GP)₁₅: H-C(GP)₁₅-OH; (GR)₁₅: H-C(GR)₁₅-OH; (PA)₁₅: H-C(PA)₁₅-OH; (PR)₁₅: H—C(PR)₁₅-OH. DPR protein peptides were then conjugated via a bifunctional linker (SMCC) to bovine serum albumin (BSA). 96-well microplates (Corning Incorporated, Corning, USA) were coated with BSA-coupled or -uncoupled dipeptide repeat protein peptides at a concentration of either 5 μg/ml or 20 μg/ml in coating buffer (15 mM Na₂CO₃, 35 mM NaHCO₃, pH 9.42). Non-specific binding sites were blocked for 1 h at room temperature with PBS/0.1% Tween®-20 containing 2% BSA (Sigma-Aldrich, Buchs, Switzerland). Primary antibodies were diluted to the indicated concentrations and incubated 1 h at room temperature, followed by incubation with a donkey anti-human IgG Fcγ-specific antibody conjugated with HRP (Jackson ImmunoResearch Laboratories, Inc., West Grove, USA). Binding was determined by measurement of HRP activity in a standard colorimetric assay. EC₅₀ values were estimated by non-linear regression using GraphPad Prism software (San Diego, USA).

By EC50 is commonly meant the concentration needed to bring the measured effect to its halfway point. High values mean weaker potency, low ones greater potency.

B1: NI-308.15O7 (antibody, V domains shown)
VH: QVQLVESGGGVVQPGRSLRLSCAASGFTFSNHAMHWVRQAPGKGLEWVAVISYDGENTYYADSIEGRFTISRDNFKNTLFLQMYSLTADDTAMYFCARGGRRGHFTSYYLDYWGQGTLVTVSS
VL: CDIQMTQSPSSLSASVGDRVTITCRASQNIDKYLNWYQQIPGKAPKLLIYAASSLHSGVPSRFSGSGSGTDFSLTISSLQPEDFAIYYCQQSYSSFRTFGQGTKLEIK
Turning to B1, the EC50 in assay [1] was determined as 0.53 nM; in assay [2], 0.78 nM; in assay [3] it was 6.3 nM; in assay [4], 8.1 nM.

B2: NI-308.4M1 (antibody, V domains shown)
VH: EVQLVETGGGVVQPGGSLRLSCEASGFTIGTYAMHWVRQFPGKGLDWVAVISFDGTTEYYTDAVKGRFTISRDNAKNTLYLQMNYLRGDDTAIYFCARDFTSSGETGSWTQVPDLWGQGTLVTVSS
VL: CEIVMTQSPATLSLSPGERATLSCRASQSVTKYLAWYQQKPGQAPRLLIYDVSYRAAGTPARFSGSGSGTDFTLTISSLEPEDFAVYYCHQRSSWPPVTFGGGTKVEIK
notes: Recombinant complete human IgG1, kappa
Molecule B2 displayed an EC50 in assay [5] of 0.1 nM.

B3: NI-308.18F7 (antibody, V domains shown)
VH: QVQLQESGPGLVKPSETLSVTCTVSGGSINDYYWNWIRQPAGKGLEWIGRIYASGTINYNPSLQSRVTMSIDTSKNQFSLDLISVSAADTAVYYCARWGQVVGDYYYGMDVWGQGTTVTVSS
VL: EIVLTQSPLSLSVTPGEPASISCKSSQSLQHTNGYNYLDWYLLKPGQSPQLLIFLTSNRASGVPDRFSGSGSGTNFTLKISRVEAEDVGVYYCMEGIQLWTFGQGTKLEIK
notes: as for B2
Turning to B3, the EC50 in assay [1] worked out at 0.87 nM; in assay [2] it was 0.89 nM; in assay [3], 0.64 nM; in assay [4] it was 2.9 nM.
